Data set [1] has as its target T1, thrombin (UniProt P00734;P00734 328-363;364-622). The data set can be described thus: kinetic exclusion assay (KinExA), two-population competitive fit; hypothetical second FA population (16%); the other 84% fixed at Kd 298 pM; PBS with 0.02% sodium azide and 1 mg/mL BSA; incubation 2 h (50 pM, 1 nM FA) or 6.5 h (10 pM FA); thrombin 5 pM to 1 uM; pH and temperature not stated. For orientation: Kinetic exclusion samples the free partner from a solution-phase mixture.

Data set [2] addresses T1, thrombin. The data set can be described thus: kinetic exclusion assay (KinExA), n-curve analysis; 1:1 model; FA 10 pM, 50 pM, 1 nM; fitted FA activity ~47%; 1:1 fit deviates at high thrombin; PBS with 0.02% sodium azide and 1 mg/mL BSA; incubation 2 h (50 pM, 1 nM FA) or 6.5 h (10 pM FA); thrombin 5 pM to 1 uM; pH and temperature not stated.

1 molecule from PMC7348807 can be followed below.

B1: 29-nt thrombin aptamer (Tasset et al.), fluorescent aptamer FA (structured_DNA)
DNA: AGTCCGTGGTAGGGCAGGTTGGGGTGACT
One may read the Kd as a measure of binding affinity in units of concentration. Higher therefore signals lower affinity. For B1, the results for the Kd with thrombin [1] and with thrombin [2] were 500 nM and 0.298 nM, respectively.
